According to article PMC3983030, “Ras GTPase-Like Protein MglA, a Controller of Bacterial Social-Motility in Myxobacteria, Has Evolved to Control Bacterial Predation by Bdellovibrio” (PLoS Genetics, 2014):

Target: T1, His6-tagged Bd2492 (Bd2492-His6) expressed in E. coli from plasmid pD2492N/3734 (Bdellovibrio bacteriovorus HD100, UniProt Q6MKB3 1-353)
T1 construct: Bd2492, 353 amino acid TPR protein of Bdellovibrio bacteriovorus HD100; The label Bd2492-His6 hints at a C-terminal tag and the plasmid name pD2492N at an N-terminal one; also called TPRBd; source: E. coli, heterologously co-expressed with MglA from plasmid pD2492N/3734
T1 sequence (looked up): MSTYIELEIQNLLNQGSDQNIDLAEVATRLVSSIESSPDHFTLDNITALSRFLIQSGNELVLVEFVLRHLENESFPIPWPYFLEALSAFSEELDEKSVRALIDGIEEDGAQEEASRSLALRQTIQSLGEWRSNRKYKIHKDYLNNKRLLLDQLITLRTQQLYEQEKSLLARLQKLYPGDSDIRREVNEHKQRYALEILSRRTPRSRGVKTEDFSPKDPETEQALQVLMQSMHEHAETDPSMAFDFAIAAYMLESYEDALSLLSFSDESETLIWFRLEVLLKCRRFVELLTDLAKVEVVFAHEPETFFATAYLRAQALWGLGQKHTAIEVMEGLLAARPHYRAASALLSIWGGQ
Assay: SEC; gel filtration and SDS-PAGE of purified MglA and Bd2492-His6; data not shown
Details: both partners purified

stoichiometry N: 1
B1: MglA (Bd3734) co-expressed in E. coli from plasmid pD2492N/3734 (natural protein, Bdellovibrio bacteriovorus HD100, UniProt Q6MH29 1-197, looked up)
chain: MSFINYNAKEIHCKVVYYGPSLGGKTTNIQWVYQKTAEDQKSKLVALNTDIERTLFFDFLPLNVGDIRGFKTRFHLYTVPGQVVYDASRKLILKGLDGVIFVADSQIERMDENLESLRNLERNLEQQGYDIREIPLIMQYNKRDLPNVASLAELRSALNPYNAPEIEGCASEGRGVFESLKTVSKSIINVLKGGTTL
notes: MglA (Bd3734) of Bdellovibrio bacteriovorus HD100; No tag is named on MglA in this construct; source: E. coli, heterologously co-expressed with Bd2492-His6 from plasmid pD2492N/3734
